Test results taken from the RNAGym collection of RNA variant scans (doi:10.7554/elife.80360).

B1: HDV Ribozyme (parent)
chain: GGCCGGCAUGGUCCCAGCCUCCUCGCUGGCGCCGGCUGGGCAACAUUCCGAGGGGACCGUCCCCUCGGUAAUGGCGAAUGGGACCCA

Variants of: B1
Test: self-cleavage, relative activity (ratio to wild type); higher = more cleavage; co-transcriptional

| Variant | self-cleavage |
| --- | --- |
| GGCCGGCAUGGUCCCAGCCUCCUCGCUGGCGCCGGCUGGGCAACAUUCCGAGGGGACCCUCCCCUCGGUAAUGGCGAAUGGGACCCA | 1.01 |
| GGCCGGCAUGGUCCCAGCCUCCUCGCUGGCGCCGGCUGGGCAACAUUCCGAGGGGACCUUCCCCUCGGUAAUGGCGAAUGGGACCCA | 0.997 |
| GGCCGGCAUGGUCCCAGCCUCCUCGCUGGCGCCGGCUGGGCAACAUUCCGAGGGGACCGACCCCUCGGUAAUGGCGAAUGUGACCCA | 0.151 |
| GGCCGGCAUGGUCCCAGCCUCCUCGCUGGCGCCGGCUGGGCAACAUUCCGAGGGGACCGACCCCUCGGUAAUGGCGAAUGCGACCCA | 0.0811 |
| GGCCGGCAUGGUCCCAGCCUCCUCGCUGGCGCCGGCUGGGCAACAUUCCGAGGGGACCGACCCCUUGGUAAUGGCGAAUGGGACCCA | 1.12 |
| GGCCGGCAUGGUCCCAGCCUCCUCGCUGGCGCCGGCUGGGCAACAUUCCGAGGGGACCGACCCCUGGGUAAUGGCGAAUGGGACCCA | 0.878 |
| GGCCGGCAUGGUCCCAGCCUCCUCGCUGGCGCCGGCUGGGCAACAUUCCGAGGGGACCGACCCCUAGGUAAUGGCGAAUGGGACCCA | 0.972 |
| GGCCGGCAUGGUCCCAGCCUCCUCGCUGGCGCCGGCUGGGCAACAUUCCGAGGGGACCGACCGCUCGGUAAUGGCGAAUGGGACCCA | 0.851 |
| GGCCGGCAUGGUCCCAGCCUCCUCGCUGGCGCCGGCUGGGCAACAUUCCGAGGGGACCCUCCCCUCGGUGAUGGCGAAUGGGACCCA | 1.06 |
| GGCCGGCAUGGUCCCAGCCUCCUCGCUGGCGCCGGCUGGGCAACAUUCCGAGGGGACCUUCCCCUUGGUAAUGGCGAAUGGGACCCA | 0.875 |
| GGCCGGCAUGGUCCCAGCCUCCUCGCUGGCGCCGGCUGGGCAACAUUCCGAGGGGACCUUCCCCUCGGUAAUGGCGAAUGGUACCCA | 0.554 |
| GGCCGGCAUGGUCCCAGCCUCCUCGCUGGCGCCGGCUGGGCAACAUUCCGAGGGGACCGACCCCUCGGUAAUGGCGAAUGGGACCUA | 0.831 |
| GGCCGGCAUGGUCCCAGCCUCCUCGCUGGCGCCGGCUGGGCAACAUUCCGAGGGGACCAUCCCCUCGGUAAUGGCGAACGGGACCCA | 0.518 |
| GGCCGGCAUGGUCCCAGCCUCCUCGCUGGCGCCGGCUGGGCAACAUUCCGAGGGGACCUUCCCAUCGGUAAUGGCGAAUGGGACCCA | 0.899 |
| GGCCGGCAUGGUCCCAGCCUCCUCGCUGGCGCCGGCUGGGCAACAUUCCGAGGGGACCUUCCCCUCGGUAAUGGCGAAUGGGACCCC | 1.17 |
| GGCCGGCAUGGUCCCAGCCUCCUCGCUGGCGCCGGCUGGGCAACAUUCCGAGGGGACCUUCCCCUCGGUAAUGGCGAAUGGGACCCU | 1.09 |
| GGCCGGCAUGGUCCCAGCCUCCUCGCUGGCGCCGGCUGGGCAACAUUCCGAGGGGACCGCCCCCUCGGUAAUGGCGCAUGGGACCCA | 0.575 |
| GGCCGGCAUGGUCCCAGCCUCCUCGCUGGCGCCGGCUGGGCAACAUUCCGAGGGGACCCUCCCCUCGCUAAUGGCGAAUGGGACCCA | 1.11 |
| GGCCGGCAUGGUCCCAGCCUCCUCGCUGGCGCCGGCUGGGCAACAUUCCGAGGGGACCUUCCCCUCAGUAAUGGCGAAUGGGACCCA | 1.05 |
| GGCCGGCAUGGUCCCAGCCUCCUCGCUGGCGCCGGCUGGGCAACAUUCCGAGGGGACCCUCCCCUCGGUAAUGGAGAAUGGGACCCA | 0.219 |
| GGCCGGCAUGGUCCCAGCCUCCUCGCUGGCGCCGGCUGGGCAACAUUCCGAGGGGACCUUCCCCUCGGUAAAGGCGAAUGGGACCCA | 0.665 |
| GGCCGGCAUGGUCCCAGCCUCCUCGCUGGCGCCGGCUGGGCAACAUUCCGAGGGGACCUUCCUCUCGGUAAUGGCGAAUGGGACCCA | 1.04 |

| Variant | self-cleavage |
| --- | --- |
| GGCCGGCAUGGUCCCAGCCUCCUCGCUGGCGCCGGCUGGGCAACAUUCCGAGGGGACCUUCCGCUCGGUAAUGGCGAAUGGGACCCA | 0.767 |
| GGCCGGCAUGGUCCCAGCCUCCUCGCUGGCGCCGGCUGGGCAACAUUCCGAGGGGACCGACCCCACGGUAAUGGCGAAUGGGACCCA | 0.831 |
| GGCCGGCAUGGUCCCAGCCUCCUCGCUGGCGCCGGCUGGGCAACAUUCCGAGGGGACCUUCCCCUCGGUCAUGGCGAAUGGGACCCA | 0.77 |
| GGCCGGCAUGGUCCCAGCCUCCUCGCUGGCGCCGGCUGGGCAACAUUCCGAGGGGACCUUCCCCUCGGUUAUGGCGAAUGGGACCCA | 0.923 |
| GGCCGGCAUGGUCCCAGCCUCCUCGCUGGCGCCGGCUGGGCAACAUUCCGAGGGGACCUUCCCCUCGGUGAUGGCGAAUGGGACCCA | 1.12 |
| GGCCGGCAUGGUCCCAGCCUCCUCGCUGGCGCCGGCUGGGCAACAUUCCGAGGGGACCUUCCCCUCGGUAAUGGCCAAUGGGACCCA | 1.08 |
| GGCCGGCAUGGUCCCAGCCUCCUCGCUGGCGCCGGCUGGGCAACAUUCCGAGGGGACCCUCCCCUCGGUAAUUGCGAAUGGGACCCA | 0.379 |
| GGCCGGCAUGGUCCCAGCCUCCUCGCUGGCGCCGGCUGGGCAACAUUCCGAGGGGACCGCCCCCUCGGUAGUGGCGAAUGGGACCCA | 0.886 |
| GGCCGGCAUGGUCCCAGCCUCCUCGCUGGCGCCGGCUGGGCAACAUUCCGAGGGGACCGACCCCUCGGUAAUGGCGAAUGGGACCCC | 1 |
| GGCCGGCAUGGUCCCAGCCUCCUCGCUGGCGCCGGCUGGGCAACAUUCCGAGGGGACCGCCCCCUCGGUGAUGGCGAAUGGGACCCA | 1.15 |
| GGCCGGCAUGGUCCCAGCCUCCUCGCUGGCGCCGGCUGGGCAACAUUCCGAGGGGACCCUCCCCGCGGUAAUGGCGAAUGGGACCCA | 0.95 |
| GGCCGGCAUGGUCCCAGCCUCCUCGCUGGCGCCGGCUGGGCAACAUUCCGAGGGGACCCUCCCCACGGUAAUGGCGAAUGGGACCCA | 1.17 |
| GGCCGGCAUGGUCCCAGCCUCCUCGCUGGCGCCGGCUGGGCAACAUUCCGAGGGGACCUUCCCCUCGGUAAUGGCGAAUGGGGCCCA | 0.732 |
| GGCCGGCAUGGUCCCAGCCUCCUCGCUGGCGCCGGCUGGGCAACAUUCCGAGGGGACCUUCCCCUCGGUAAUGGCGAAUGGGUCCCA | 0.486 |
| GGCCGGCAUGGUCCCAGCCUCCUCGCUGGCGCCGGCUGGGCAACAUUCCGAGGGGACCCUCCCCUUGGUAAUGGCGAAUGGGACCCA | 0.81 |
| GGCCGGCAUGGUCCCAGCCUCCUCGCUGGCGCCGGCUGGGCAACAUUCCGAGGGGACCUUCCCCUCGGUAAUGGCGAAAGGGACCCA | 0.929 |
| GGCCGGCAUGGUCCCAGCCUCCUCGCUGGCGCCGGCUGGGCAACAUUCCGAGGGGACCUUCCCCUCGGUAAUGGAGAAUGGGACCCA | 0.0314 |
| GGCCGGCAUGGUCCCAGCCUCCUCGCUGGCGCCGGCUGGGCAACAUUCCGAGGGGACCUUCCCCCCGGUAAUGGCGAAUGGGACCCA | 1.15 |
| GGCCGGCAUGGUCCCAGCCUCCUCGCUGGCGCCGGCUGGGCAACAUUCCGAGGGGACCCUCCCCUCUGUAAUGGCGAAUGGGACCCA | 1.09 |
| GGCCGGCAUGGUCCCAGCCUCCUCGCUGGCGCCGGCUGGGCAACAUUCCGAGGGGACCCUCCCCUCAGUAAUGGCGAAUGGGACCCA | 1.06 |
| GGCCGGCAUGGUCCCAGCCUCCUCGCUGGCGCCGGCUGGGCAACAUUCCGAGGGGACCUUCCCCUCGGUAAUGGCGAAUGGGACCUA | 0.852 |
| GGCCGGCAUGGUCCCAGCCUCCUCGCUGGCGCCGGCUGGGCAACAUUCCGAGGGGACCCUCCCCUCGGUAAUGGCGAAUGGUACCCA | 0.489 |

| Variant | self-cleavage |
| --- | --- |
| GGCCGGCAUGGUCCCAGCCUCCUCGCUGGCGCCGGCUGGGCAACAUUCCGAGGGGACCCUCCCCUCGGUAAUGGCGAAUGCGACCCA | 0.261 |
| GGCCGGCAUGGUCCCAGCCUCCUCGCUGGCGCCGGCUGGGCAACAUUCCGAGGGGACCUCCCCCUCGGUAAUGGCGAAUGGGACCCA | 1.37 |
| GGCCGGCAUGGUCCCAGCCUCCUCGCUGGCGCCGGCUGGGCAACAUUCCGAGGGGACCUGCCCCUCGGUAAUGGCGAAUGGGACCCA | 0.88 |
| GGCCGGCAUGGUCCCAGCCUCCUCGCUGGCGCCGGCUGGGCAACAUUCCGAGGGGACCUUCCCCUCGGUACUGGCGAAUGGGACCCA | 0.895 |
| GGCCGGCAUGGUCCCAGCCUCCUCGCUGGCGCCGGCUGGGCAACAUUCCGAGGGGACCCCCCCCUCGGUAAUGGCGAAUGGGACCCA | 0.937 |
| GGCCGGCAUGGUCCCAGCCUCCUCGCUGGCGCCGGCUGGGCAACAUUCCGAGGGGACCCUCCCCUCGGUAAUGGCGAAUCGGACCCA | 0.222 |
| GGCCGGCAUGGUCCCAGCCUCCUCGCUGGCGCCGGCUGGGCAACAUUCCGAGGGGACCCUCCCCUCGGUAAUGGCGAUUGGGACCCA | 0.155 |
| GGCCGGCAUGGUCCCAGCCUCCUCGCUGGCGCCGGCUGGGCAACAUUCCGAGGGGACCCUCGCCUCGGUAAUGGCGAAUGGGACCCA | 0.6 |
| GGCCGGCAUGGUCCCAGCCUCCUCGCUGGCGCCGGCUGGGCAACAUUCCGAGGGGACCGACCCCUCGGUGAUGGCGAAUGGGACCCA | 0.77 |
| GGCCGGCAUGGUCCCAGCCUCCUCGCUGGCGCCGGCUGGGCAACAUUCCGAGGGGACCGACCCCUCGGUCAUGGCGAAUGGGACCCA | 0.808 |
| GGCCGGCAUGGUCCCAGCCUCCUCGCUGGCGCCGGCUGGGCAACAUUCCGAGGGGACCUUCCCCUCGGUAAUAGCGAAUGGGACCCA | 0.644 |
| GGCCGGCAUGGUCCCAGCCUCCUCGCUGGCGCCGGCUGGGCAACAUUCCGAGGGGACCGACCCCUCGGUAAUGGCGAAUAGGACCCA | 0.3 |
| GGCCGGCAUGGUCCCAGCCUCCUCGCUGGCGCCGGCUGGGCAACAUUCCGAGGGGACCGACCCCUCGGUAAUGACGAAUGGGACCCA | 0.422 |
| GGCCGGCAUGGUCCCAGCCUCCUCGCUGGCGCCGGCUGGGCAACAUUCCGAGGGGACCUUCCCCUCGGCAAUGGCGAAUGGGACCCA | 0.852 |
| GGCCGGCAUGGUCCCAGCCUCCUCGCUGGCGCCGGCUGGGCAACAUUCCGAGGGGACCGACCCCUCGGUAAAGGCGAAUGGGACCCA | 0.739 |
| GGCCGGCAUGGUCCCAGCCUCCUCGCUGGCGCCGGCUGGGCAACAUUCCGAGGGGACCGACCCCUCGGUAAUGGCGAAGGGGACCCA | 0.807 |
| GGCCGGCAUGGUCCCAGCCUCCUCGCUGGCGCCGGCUGGGCAACAUUCCGAGGGGACCCUCCUCUCGGUAAUGGCGAAUGGGACCCA | 1.11 |
| GGCCGGCAUGGUCCCAGCCUCCUCGCUGGCGCCGGCUGGGCAACAUUCCGAGGGGACCGACCCCUCGGUAAUGGCGAAUGGGACGCA | 0.673 |
| GGCCGGCAUGGUCCCAGCCUCCUCGCUGGCGCCGGCUGGGCAACAUUCCGAGGGGACCGACCCCUCGGUAAUGGCGAAUGGGACUCA | 0.912 |
| GGCCGGCAUGGUCCCAGCCUCCUCGCUGGCGCCGGCUGGGCAACAUUCCGAGGGGACCGACCCUUCGGUAAUGGCGAAUGGGACCCA | 1.13 |
